{"source": "paper PMC2828913", "target": "Collagen matrix (Purecol) (UniProt P02453)", "sequence (P02453 162-1217, chain 1 of 2)": "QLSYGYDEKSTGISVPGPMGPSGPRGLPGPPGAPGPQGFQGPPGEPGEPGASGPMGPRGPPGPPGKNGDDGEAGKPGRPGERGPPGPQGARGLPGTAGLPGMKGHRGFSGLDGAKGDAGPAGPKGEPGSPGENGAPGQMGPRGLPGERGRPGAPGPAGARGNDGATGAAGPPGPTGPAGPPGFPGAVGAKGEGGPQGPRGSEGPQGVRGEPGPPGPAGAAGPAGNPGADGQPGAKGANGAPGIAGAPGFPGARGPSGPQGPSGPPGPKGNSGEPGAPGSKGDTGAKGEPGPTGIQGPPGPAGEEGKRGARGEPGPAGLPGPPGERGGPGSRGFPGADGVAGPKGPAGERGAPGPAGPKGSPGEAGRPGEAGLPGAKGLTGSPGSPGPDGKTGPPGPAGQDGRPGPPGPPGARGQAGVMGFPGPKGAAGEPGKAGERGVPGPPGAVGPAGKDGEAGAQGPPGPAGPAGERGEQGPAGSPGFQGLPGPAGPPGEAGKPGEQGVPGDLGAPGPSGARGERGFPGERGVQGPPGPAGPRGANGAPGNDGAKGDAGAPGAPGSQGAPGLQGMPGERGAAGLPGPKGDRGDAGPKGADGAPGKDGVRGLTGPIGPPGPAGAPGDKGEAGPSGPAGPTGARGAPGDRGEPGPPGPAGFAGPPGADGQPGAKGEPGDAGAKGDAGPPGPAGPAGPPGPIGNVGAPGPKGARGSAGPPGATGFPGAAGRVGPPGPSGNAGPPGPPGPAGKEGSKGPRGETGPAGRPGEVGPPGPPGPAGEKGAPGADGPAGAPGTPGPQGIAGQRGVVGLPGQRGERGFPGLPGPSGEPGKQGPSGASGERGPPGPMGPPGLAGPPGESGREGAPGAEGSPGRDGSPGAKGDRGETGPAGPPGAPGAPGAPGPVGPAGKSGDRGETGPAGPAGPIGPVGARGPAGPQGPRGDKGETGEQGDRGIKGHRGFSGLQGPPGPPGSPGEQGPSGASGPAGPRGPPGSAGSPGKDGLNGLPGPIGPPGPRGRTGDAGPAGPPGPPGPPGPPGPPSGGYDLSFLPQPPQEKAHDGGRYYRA", "sequence (P02465 80-1117, chain 2 of 2, further chain)": "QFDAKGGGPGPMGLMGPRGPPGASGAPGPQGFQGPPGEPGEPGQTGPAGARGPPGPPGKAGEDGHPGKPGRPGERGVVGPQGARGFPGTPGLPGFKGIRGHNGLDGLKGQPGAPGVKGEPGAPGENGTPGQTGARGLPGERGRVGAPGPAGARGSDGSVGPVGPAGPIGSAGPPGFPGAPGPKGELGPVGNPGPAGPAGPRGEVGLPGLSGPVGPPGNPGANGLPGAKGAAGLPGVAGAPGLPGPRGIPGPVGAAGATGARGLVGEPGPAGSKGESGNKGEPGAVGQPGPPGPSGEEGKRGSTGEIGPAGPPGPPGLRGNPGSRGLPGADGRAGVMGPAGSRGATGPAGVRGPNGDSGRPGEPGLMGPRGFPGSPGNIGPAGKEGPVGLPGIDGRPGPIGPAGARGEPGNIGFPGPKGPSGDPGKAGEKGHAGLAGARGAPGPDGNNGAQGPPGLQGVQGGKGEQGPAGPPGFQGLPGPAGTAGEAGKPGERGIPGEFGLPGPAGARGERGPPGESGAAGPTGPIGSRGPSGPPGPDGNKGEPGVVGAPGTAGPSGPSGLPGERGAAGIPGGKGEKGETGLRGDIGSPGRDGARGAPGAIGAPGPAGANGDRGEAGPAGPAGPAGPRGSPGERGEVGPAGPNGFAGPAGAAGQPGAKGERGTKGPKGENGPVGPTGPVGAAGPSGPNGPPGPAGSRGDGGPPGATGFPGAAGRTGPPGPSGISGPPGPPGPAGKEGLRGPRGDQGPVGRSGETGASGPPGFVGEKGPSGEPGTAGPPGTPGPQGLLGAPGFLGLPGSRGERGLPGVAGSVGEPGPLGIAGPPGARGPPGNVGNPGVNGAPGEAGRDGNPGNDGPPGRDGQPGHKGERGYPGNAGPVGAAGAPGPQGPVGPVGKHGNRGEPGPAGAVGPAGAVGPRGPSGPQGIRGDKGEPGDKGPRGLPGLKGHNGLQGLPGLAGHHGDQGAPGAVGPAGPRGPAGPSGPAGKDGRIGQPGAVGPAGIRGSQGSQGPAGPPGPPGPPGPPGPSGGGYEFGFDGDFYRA", "assay": "retention in a polymerised collagen gel"}
{"substance": "Human VEGF165 (ligand)", "values": [{"measurement": "percent retained in the collagen gel after washes", "result": "> 80", "unit": "%"}]}
